According to publication PMC8025780 (Biochemistry, 2020):

Molecular target: the molecule itself
Experiment: SAXS

B1: Staphylococcus aureus GbaA, disulfide cross-linked (oxidized) (natural protein)
chain: MRKDAKENRQRIEEIAHKLFDEEGVENISMNRIAKELGIGMGTLYRHFKDKSDLCYYVIQRDLDIFITHFKQIKDDYHSNYEVMQVSLDYLLQFKIDNKALLQCIEAGNNKLRFYQSAFYQELFDFYYDLFKSDDDTYTKFKTDMLLQSLSTSVFAFQIEHRHISIEAYRNYLLNIYLDEVGRND
modifications: intraprotomer disulfide C55-C104
stoichiometry N: 2
